B1: Telomeric repeat-binding factor 2, residues 489 to 542; numbered along this chain, Q15554 (parent)
chain: KQKWTVEESEWVKAGVQKYGEGNWAAISKNYPFVNRTAVMIKDRWRTMKRLGMN
B2: Endonuclease CUE2, residues 9 to 47; numbered along this chain, P36075 (parent)
chain: HESKLSILMDMFPAISKSKLQVHLLENNNDLDLTIGLLL

Variants of: B1
Assay: abundance fitness (aPCA) (normalised: wild type 0, dead -1); higher = more abundant; growth selection in yeast, the domain comes from the species named
Settings: Homo sapiens

Abundance fitness, by site and new letter:
R50: V -0.07, H -0.553, P -0.176, A 0.007, F 0.076, L -0.252, E 0.052, T -0.016, N -0.054, S 0.068, M 0.007, W -0.253, I 0.286, Y -0.456, K 0.178, Q -0.026
W45: Y -0.318, K -1.09, R -0.953, L -0.815, T -0.986, Q -0.914, S -0.933, V -0.866
M53: H -0.249, E 0.01, T -0.249, R -0.311, G -0.007, W -0.329, L 0.026, I -0.141, D 0.349, Y -0.686, S -0.145, Q -0.099, P -0.147, A -0.134, K -0.269, V -0.184
R46: C -0.133, F 0.073, H 0.011, P -0.828, S 0.043, D -0.195, N 0.047, A 0.106, L 0.054, Q -0.004, V 0.005, M 0.325, E 0.204, T 0.136, K -0.007, I 0.015, W -0.106, Y 0.181
N54: F -0.537, D -0.038, Y -0.399, H 0.092, T 0.544, A 0.246, I -0.032, W -0.166, G 0.344, V -0.075, S -0.051
T47: A 0.059, S -0.017, F -0.658, D 0.145, Y 0.015, Q 0.042, I -0.094, R -0.204, M -0.18, W -0.276, N -0.281, V -0.157, E 0.177, P -0.67, C -0.083, K -0.05
K49: W -0.334, Q -0.054, T -0.142, M -0.657, G -0.568, A -0.29, S -0.286, I -0.415, N -0.597, D -0.507, F -0.535, H -0.462, L -0.302, C 0.116, P -0.766, E -0.235, R -0.358
M48: G -1.02, I -0.395, Y -0.696, R -1, D -0.507, E -0.674, Q -0.64, L -0.177, A -0.821, V -0.463, K -0.978, T -0.635, P -0.886, C -0.912, W -0.359, F -0.688, N -0.376, S -0.95
G52: Y -0.485, K -0.149, I -0.019, R -0.119, H -0.215, Q -0.201, V 0.004, W -0.449, F -0.223, A -0.304, C -0.087, L -0.195, D -0.011, S -0.358, P 0.243, N 0.049, E -0.071, T -0.1
L51: M -0.051, V 0.006, Y -0.063, C -0.171, Q 0.036, D -0.259, H 0.031, E 0.283, T 0.101, W -0.05, P -0.394, A -0.043, S -0.025, G -0.035, F -0.355, I -0.241

Variants of: B2
Assay: as above
Settings: Saccharomyces cerevisiae (strain ATCC 204508 / S288c)

Abundance fitness: each site, then its substitutions
M11: S -0.421, D -0.758, N -0.209, W -0.413, A -0.16, V -0.447, L -0.184, E -0.274, H -0.297, Q -0.077, G -0.746, P -0.748
S3: E -0.106, G -0.145, C -0.146, W -0.428, T -0.344, P -0.453, Q -0.057, R -0.329, K -0.094, M -0.042, V -0.329, L -0.184, A -0.156, H 0.014
E2: I 0.14, R 0.13, T 0.157, K 0.153, D -0.133, G -0.11, Q 0.113, C 0.283, S -0.319, W -0.349, M 0.19, V -0.195, L 0.109, N 0.167, P -0.035
P13: G -0.834, C -0.67, R -0.951, D -0.898, Q -0.752, E -0.349, I -0.804, H -1.06, M -0.72, F -0.868, A -0.602, L -0.795, K -0.781
D10: G -0.099, N -0.086, P -0.587, W -0.691, E 0.052, V -0.336, K -0.191, L -0.441, H -0.145, C -0.123, Q -0.183, I -0.12, S -0.299, F -0.463
H1: W 0.05, S 0.174, T 0.467, L 0.377, K 0.312, G 0.237, D 0.064, A 0.264, V 0.28, M 0.255, C 0.351, E 0.361, R 0.284
I7: K 0.078, W -0.406, F -0.282, G -0.544, S -0.114, V 0.095, A 0.071, C 0.153, P -0.633, M 0.058, D 0.22, E -0.158, T 0.059, Q 0.137
S6: P -0.342, L -0.098, T -0.011, H -0.38, A 0.041, Y 0.32, Q 0, E -0.107, G -0.073, M -0.221, R -0.027, W -0.443
L8: G -0.913, V -0.596, S -0.915, Q -0.96, K -0.968, M -0.631, R -0.883, F -0.701, E -0.931, W -0.947, D -1.16, A -1.02
L5: M -0.031, C -0.306, S -0.856, G -0.817, R -0.906, W -0.779, A -0.708, P -0.738, D -0.928, T -0.338, E -0.683, V -0.002, H -1, Q -0.775, K -0.771
K4: S -0.001, R -0.038, C -0.061, M 0.188, E -0.011, I -0.127, P -0.16, A -0.117, Q -0.023, D 0.115, F -0.259, L -0.13, V -0.37, N -0.023, Y 0.127, G -0.241, H 0.098, W -0.572
M9: Y -0.057, C -0.159, N -0.402, D -0.255, Q -0.013, K -0.155, R -0.049, T -0.054, G -0.011, S -0.011, L 0.107, A -0.042, P -1.14, E -0.03, V 0.014, W -0.28
F12: P -0.611, D -1.07, T -0.446, K -0.966, S -0.808, L -0.644, R -0.865, G -0.905, E -0.884, M -0.548, W -0.596, V -0.9
